What is called Kd is the constant that tells how readily two partners part at equilibrium. Lower therefore signals tighter binding.

This data set deals with CA125 (native antigen) (human, UniProt Q8WXI7 1-14451). The data set is described as follows: nitrocellulose membrane binding, elution and nanodrop quantification; CA125 20 U/mL immobilized; 1 mM Mg2+ in binding buffer; SELEX binding buffer 10 mM PBS, 1 mM MgCl2, 0.01% herring sperm DNA, 25 C; KD in binding buffer (composition not restated), 2 h at RT; pH not stated. The note with it: protein: native.

B1: Apt 2.43 (ssDNA)
DNA: TAGGGAAGAGAAGGACATATGATGATCAACAACACAAGGGGGGGGGTATCTAGTTGACTAGTACATGACCACTTGA
In turn, B1 returned a Kd of 239 nM. That is a sub-micromolar value.

B2: Apt 2.26 (ssDNA)
DNA: TAGGGAAGAGAAGGACATATGATTTTAGGGAAGAGAAGGACTTTTATGCCGCCTTGACTAGTACATGACCACTTGA
With B2, binding was characterised by a dissociation constant (Kd) of 166 nM.

The record behind these values is PMC7242751, “Novel ssDNA Ligand Against Ovarian Cancer Biomarker CA125 With Promising Diagnostic Potential”.
